Test results as given in US9993566B2, “SEZ6 modulators and methods of use” (AbbVie Stemcentrx LLC, priority 2013, dated 2018).

Legend:
mouse SEZ6 = biological target: T1, mouse SEZ6 (Mus musculus, UniProt Q7TSK2); test: Flow cytometry cross reactivity, Neuro2a cells; assay type: binding; details: 5 μg/mL antibody
T1 construct: Neuro2a (ATCC Cat # CCL131), and RIN-m5F (ATCC cat # CRL-11605) cell lines which express mouse SEZ6 and rat SEZ6; host or cells: Neuro2a
Experimental: (§1) In this regard flow cytometry was performed using a FACSCanto II as per the manufacturer's instructions in order to confirm that selected SC17 antibody modulators can immunospecifically associate with human SEZ6 and to determine whether the same modulators cross-react with cynomolgus, rat and/or murine SEZ6 in addition to SEZ6L and SEZ6L2. More particularly modulators were tested for cross reactivity to murine SEZ6 and rat SEZ6 by flow cytometry against Neuro2a (ATCC Cat # CCL131), and RIN-m5F (ATCC cat # CRL-11605) cell lines which express mouse SEZ6 and rat SEZ6, respectively. For examining cross reactivity to cynomolgus SEZ6, yeast displaying the extracellular domain of cynomolgus SEZ6 (Boder et al, 1997) were used for flow cytometry analysis.
(§2) Briefly 1×10^5 cells per well of Neuro2a, RIN-5mF, or yeast displaying cynomolgus SEZ6 cells were incubated for 30 minutes with 50 μL PBS (2% FCS) buffer with 5 μg/mL antibody. Cells were washed twice with the same buffer and then incubated with 50 μL per sample DyLight 649 labeled goat-anti-mouse IgG, Fc fragment specific secondary diluted 1:200 in PBS buffer. After incubating for 15 minutes cells were washed twice with the PBS buffer and re-suspended in the same with DAPI for flow cytometry analysis of Neuro2a and Rin-m5F or buffer without DAPI for flow cytometric analysis of yeast cells with cSEZ6.

rat SEZ6 = test: Flow cytometry cross reactivity, RIN-m5F cells; assay type: binding; details: 5 μg/mL antibody
Experimental: as §1, §2

SEZ6L2 = biological target: T2, SEZ6L2 (Homo sapiens, UniProt Q6UXD5, INS830AYEELLDNRKLEV); test: ELISA cross reactivity to family member SEZ6L2; assay type: binding; set-up: key to binds SEZ6 family member SEZ6L2 (dagger): *: antibodies that bind SEZ6 family members SEZ6L and SEZ6L2 are designated with an asterisk and/or a dagger, respectively; †: antibodies that bind SEZ6 family members SEZ6L and SEZ6L2 are designated with an asterisk and/or a dagger, respectively
T2 construct: IgK signal peptide (N, cleaved yes); made in house; host or cells: HEK-293T or CHO-S
Experimental: To determine cross reactivity to family member proteins, SEZ6L and SEZ6L2, an ELISA-based assay was used. Plates were coated with SEZ6, SEZ6L, or SEZ6L2 proteins at 0.2 μg/mL in PBS overnight. After washing with PBS containing 0.05% (v/v) Tween 20 (PBST), the wells were blocked with 2% (w/v) BSA in PBS (PBSA), 100 μL/well for 1 hour at room temperature. Antibody was then added at 1 μg/mL in 100 μL PBSA for 1 hour at room temperature. After washing with PBST, 100 μL/well HRP-labeled goat anti-mouse IgG diluted 1:2,000 in PBSA for 1 hour at room temperature. The plates were washed and 100 μL/well of the TMB substrate solution (Thermo Scientific 34028) was added for 15 minutes at room temperature. After developing, an equal volume of 2M H2SO4 was added to stop substrate development and analyzed by spectrophotometer at OD 450. […] As discussed above, such pan-SEZ6 antibodies are compatible with the teachings herein and may be used in conjunction with the disclosed methods.

LU100, a SCLC tumor = test: Fab-saporin cytotoxicity in NTX tumor cells; assay type: cell-based, human; details: 50 and 500 pM antibody with Fab-saporin, seven days
Experimental: To corroborate the results of Example 14 and determine whether SEZ6 modulators can mediate toxin internalization and cell killing of human tumor cells (as opposed to engineered cells), mouse lineage-depleted NTX cells were plated and subsequently exposed to anti-SEZ6 antibodies and Fab-saporin.
(§3) NTX tumors were dissociated into a single cell suspension and plated on Primaria™ plates (BD Biosciences) in growth factor supplemented serum free media as is known in the art. After culturing the cells for one day at 37° C./5% CO2/5% O2, they were treated with a control (IgG1, IgG2a or IgG2b) or a murine SEZ6 modulator and Fab-saporin as described in Example 14. After seven days, the modulator-mediated saporin cytotoxicity was assessed by quantifying the remaining number of live cells using Cell Titer Glo.

cynomolgus SEZ6 = test: Flow cytometry cross reactivity, yeast displaying extracellular domain of cynomolgus SEZ6; assay type: binding; details: 5 μg/mL antibody
Experimental: as §1, §2

SEZ6 ECD = biological target: T3, SEZ6 ECD (Homo sapiens, UniProt Q53EL9); test: Fine epitope mapping (phage display peptide library or yeast-displayed SEZ6 ECD mutants); assay type: binding; details: epitope conformational (discontinuous) or linear
T3 construct: SEZ6 extracellular domain (amino acids 1-904); expressed in transfected cells; host or cells: yeast (surface display, Cochran et al. protocol)
Experimental: Epitopes were classified either as conformational (i.e. discontinuous) or linear. Yeast displaying the SEZ6 ECD construct was heat treated for 30 minutes at 80° C. in order to denature the antigen, washed twice in ice-cold PBSA and then subjected to the same staining protocol and flow cytometry analysis as described above. Antibodies that bound to both the denatured and native yeast were classified as binding to a linear epitope, whereas antibodies that bound native yeast but not denatured yeast were classified as conformationally specific.
Fine epitope mapping was further performed on selected antibodies to determine the specific amino acids to which they bound. Antibodies that bound to a linear epitope were mapped using the Ph.D.-12 phage display peptide library kit (New England Biolabs E8110S). The antibody selected for epitope mapping was coated onto a Nunc MaxiSorp tube (Nunc) at 50 μg/mL in 3 mL 0.1 M sodium bicarbonate solution, pH 8 and incubated overnight. The tube was blocked with 3% BSA solution in bicarbonate solution. Then, 10^11 input phage in PBS+0.1% Tween-20 was allowed to bind, followed by ten consecutive washes with 0.1% Tween-20 to wash away non-binding phage. Remaining phage were eluted with 1 mL 0.2 M glycine for 10 minutes at room temperature with gentle agitation, followed by neutralization with 150 μL 1 M Tris-HCl pH 9. Eluted phage were amplified and panned again with 10^11 input phage, using 0.5% Tween-20 during the wash steps to increase selection stringency. DNA from 24 plaques of the eluted phage from the second round was isolated using the Qiaprep M13 Spin kit (Qiagen) and sequenced. Binding of clonal phage was confirmed using an ELISA assay, where the mapped antibody or a control antibody was coated onto an ELISA plate, blocked, and exposed to each clone phage. Phage binding was detected using horseradish peroxidase conjugated anti-M13 antibody (GE Healthcare), and the 1-Step Turbo TMB ELISA solution (Pierce). Phage peptide sequences from specifically binding phage were aligned using Vector NTI (Life Technologies) against the antigen ECD peptide sequence to determine the epitope of binding.
Selected antibodies that bound to a discontinuous epitope were mapped using the technique described by Chao et al. (2007). Libraries of SEZ6 ECD mutants were generated with error prone PCR using nucleotide analogues 8-oxo-2′deoxyguanosine-5′-triphosphate and 2′-deoxy-p-nucleoside-5′triphosphate (both from TriLink Bio) for a target mutagenesis rate of one amino acid mutation per clone. These were transformed into a yeast display format. Using the technique described above for domain-level mapping, the library was stained for c-myc and antibody binding at 50 nM. […] These clones were re-grown, and subjected to another round of FACS sorting for loss of binding to the target antibody. Using the Zymoprep Yeast Plasmid Miniprep kit (Zymo Research), individual ECD clones were isolated and sequenced. Where necessary, mutations were reformatted as single-mutant ECD clones using the Quikchange site directed mutagenesis kit (Agilent).
Individual ECD clones were next screened to determine whether loss of binding was due to a mutation in the epitope, or a mutation that caused misfolding. Mutations that involved cysteine, proline, and stop codons were automatically discarded due to the high likelihood of a misfolding mutation. Remaining ECD clones were then screened for binding to a non-competing, conformationally specific antibody. ECD clones that lost binding to non-competing, conformationally specific antibodies were concluded to contain misfolding mutations, whereas ECD clones that retained equivalent binding as wild type SEZ6 ECD were concluded to be properly folded. Mutations in the ECD clones in the latter group were concluded to be in the epitope. […]

LU64, a SCLC tumor = test: ADC cytotoxicity in NTX tumor cells in vitro; assay type: cell-based, human; details: compared to control msIgG1
Experimental: as §3
(§4) Mouse lineage-depleted NTX tumor cells were exposed to anti-SEZ6 ADCs or a mouse isotype control (msIgG1) using the same method as described in Example 15, except that Fab-saporin was not added.

[1] = test system: OV26, a NET ovarian tumor; test: ADC cytotoxicity in NTX tumor cells in vitro; assay type: cell-based, human; details: compared to control msIgG1
Experimental: as §3, §4

T3 sequence (Q53EL9 20-923): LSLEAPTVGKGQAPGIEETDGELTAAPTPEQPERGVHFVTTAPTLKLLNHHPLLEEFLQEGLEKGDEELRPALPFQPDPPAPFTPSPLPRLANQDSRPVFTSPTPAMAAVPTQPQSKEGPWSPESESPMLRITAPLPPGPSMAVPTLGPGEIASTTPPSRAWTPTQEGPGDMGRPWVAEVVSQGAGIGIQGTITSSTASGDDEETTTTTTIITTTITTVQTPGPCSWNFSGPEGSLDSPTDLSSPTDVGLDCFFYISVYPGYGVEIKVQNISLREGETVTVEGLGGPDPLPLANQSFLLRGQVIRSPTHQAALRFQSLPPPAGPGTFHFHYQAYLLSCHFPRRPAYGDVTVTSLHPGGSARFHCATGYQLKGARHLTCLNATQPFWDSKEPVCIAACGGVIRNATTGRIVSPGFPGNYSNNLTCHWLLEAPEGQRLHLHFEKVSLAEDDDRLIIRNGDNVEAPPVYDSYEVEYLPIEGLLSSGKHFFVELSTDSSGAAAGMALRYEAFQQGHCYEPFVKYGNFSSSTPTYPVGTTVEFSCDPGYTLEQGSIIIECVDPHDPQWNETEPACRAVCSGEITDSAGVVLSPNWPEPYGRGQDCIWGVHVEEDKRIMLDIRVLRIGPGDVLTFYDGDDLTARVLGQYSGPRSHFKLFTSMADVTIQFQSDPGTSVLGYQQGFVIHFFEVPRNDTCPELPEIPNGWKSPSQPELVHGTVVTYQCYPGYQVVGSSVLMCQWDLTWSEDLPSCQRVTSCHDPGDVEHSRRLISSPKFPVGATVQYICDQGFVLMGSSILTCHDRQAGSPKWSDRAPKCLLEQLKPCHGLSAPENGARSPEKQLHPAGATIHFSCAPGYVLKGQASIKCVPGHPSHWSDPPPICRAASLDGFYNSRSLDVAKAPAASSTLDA
T2 sequence (Q6UXD5 with tags, fused parts or gaps with the stated changes): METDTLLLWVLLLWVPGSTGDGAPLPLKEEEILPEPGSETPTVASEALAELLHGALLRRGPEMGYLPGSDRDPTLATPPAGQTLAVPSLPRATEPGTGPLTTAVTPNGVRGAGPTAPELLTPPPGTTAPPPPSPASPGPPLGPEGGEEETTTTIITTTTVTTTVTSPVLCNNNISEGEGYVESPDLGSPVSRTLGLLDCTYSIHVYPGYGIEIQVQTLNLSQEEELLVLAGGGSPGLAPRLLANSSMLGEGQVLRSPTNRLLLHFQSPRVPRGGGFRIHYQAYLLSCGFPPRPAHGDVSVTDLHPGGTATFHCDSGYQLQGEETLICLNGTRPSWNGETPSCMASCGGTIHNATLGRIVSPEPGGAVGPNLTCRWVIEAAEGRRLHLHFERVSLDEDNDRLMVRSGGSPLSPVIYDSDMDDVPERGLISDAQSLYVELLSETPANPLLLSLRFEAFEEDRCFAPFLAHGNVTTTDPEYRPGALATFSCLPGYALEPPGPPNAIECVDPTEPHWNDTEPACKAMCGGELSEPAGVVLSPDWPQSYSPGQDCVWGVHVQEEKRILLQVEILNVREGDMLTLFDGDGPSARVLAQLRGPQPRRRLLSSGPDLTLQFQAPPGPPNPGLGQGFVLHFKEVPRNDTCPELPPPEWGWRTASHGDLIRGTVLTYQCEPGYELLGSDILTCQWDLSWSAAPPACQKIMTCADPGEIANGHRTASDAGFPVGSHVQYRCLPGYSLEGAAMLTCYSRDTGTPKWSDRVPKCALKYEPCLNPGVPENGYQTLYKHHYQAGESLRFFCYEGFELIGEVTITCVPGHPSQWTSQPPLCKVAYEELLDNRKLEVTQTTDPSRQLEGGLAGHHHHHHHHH
Sequence of rat SEZ6 (as listed by the source): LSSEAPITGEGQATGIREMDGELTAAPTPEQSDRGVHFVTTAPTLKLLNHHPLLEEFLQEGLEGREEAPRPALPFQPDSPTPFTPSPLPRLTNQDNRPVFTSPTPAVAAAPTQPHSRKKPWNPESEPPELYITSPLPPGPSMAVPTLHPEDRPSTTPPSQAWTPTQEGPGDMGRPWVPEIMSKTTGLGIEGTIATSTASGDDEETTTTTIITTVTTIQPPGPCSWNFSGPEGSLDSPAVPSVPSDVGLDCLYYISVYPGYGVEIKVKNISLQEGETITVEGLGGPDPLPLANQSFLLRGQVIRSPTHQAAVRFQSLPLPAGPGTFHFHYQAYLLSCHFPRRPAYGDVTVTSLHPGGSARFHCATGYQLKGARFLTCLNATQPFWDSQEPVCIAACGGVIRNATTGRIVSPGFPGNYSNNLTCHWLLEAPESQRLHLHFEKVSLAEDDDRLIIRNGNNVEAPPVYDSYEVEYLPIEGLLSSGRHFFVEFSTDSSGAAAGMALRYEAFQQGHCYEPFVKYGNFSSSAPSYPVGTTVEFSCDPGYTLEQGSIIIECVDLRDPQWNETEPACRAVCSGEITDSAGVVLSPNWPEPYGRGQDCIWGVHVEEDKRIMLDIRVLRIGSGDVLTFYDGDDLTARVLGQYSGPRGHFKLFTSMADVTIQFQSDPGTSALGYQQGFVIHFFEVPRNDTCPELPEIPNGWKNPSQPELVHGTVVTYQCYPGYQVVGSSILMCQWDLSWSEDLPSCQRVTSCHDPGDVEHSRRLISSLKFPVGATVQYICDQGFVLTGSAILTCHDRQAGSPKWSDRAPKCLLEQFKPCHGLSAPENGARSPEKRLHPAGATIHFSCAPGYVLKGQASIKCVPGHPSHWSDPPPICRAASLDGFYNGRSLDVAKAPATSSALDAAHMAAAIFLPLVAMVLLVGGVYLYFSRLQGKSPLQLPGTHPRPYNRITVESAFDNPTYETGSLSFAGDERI
T1 sequence (Q7TSK2 20-991): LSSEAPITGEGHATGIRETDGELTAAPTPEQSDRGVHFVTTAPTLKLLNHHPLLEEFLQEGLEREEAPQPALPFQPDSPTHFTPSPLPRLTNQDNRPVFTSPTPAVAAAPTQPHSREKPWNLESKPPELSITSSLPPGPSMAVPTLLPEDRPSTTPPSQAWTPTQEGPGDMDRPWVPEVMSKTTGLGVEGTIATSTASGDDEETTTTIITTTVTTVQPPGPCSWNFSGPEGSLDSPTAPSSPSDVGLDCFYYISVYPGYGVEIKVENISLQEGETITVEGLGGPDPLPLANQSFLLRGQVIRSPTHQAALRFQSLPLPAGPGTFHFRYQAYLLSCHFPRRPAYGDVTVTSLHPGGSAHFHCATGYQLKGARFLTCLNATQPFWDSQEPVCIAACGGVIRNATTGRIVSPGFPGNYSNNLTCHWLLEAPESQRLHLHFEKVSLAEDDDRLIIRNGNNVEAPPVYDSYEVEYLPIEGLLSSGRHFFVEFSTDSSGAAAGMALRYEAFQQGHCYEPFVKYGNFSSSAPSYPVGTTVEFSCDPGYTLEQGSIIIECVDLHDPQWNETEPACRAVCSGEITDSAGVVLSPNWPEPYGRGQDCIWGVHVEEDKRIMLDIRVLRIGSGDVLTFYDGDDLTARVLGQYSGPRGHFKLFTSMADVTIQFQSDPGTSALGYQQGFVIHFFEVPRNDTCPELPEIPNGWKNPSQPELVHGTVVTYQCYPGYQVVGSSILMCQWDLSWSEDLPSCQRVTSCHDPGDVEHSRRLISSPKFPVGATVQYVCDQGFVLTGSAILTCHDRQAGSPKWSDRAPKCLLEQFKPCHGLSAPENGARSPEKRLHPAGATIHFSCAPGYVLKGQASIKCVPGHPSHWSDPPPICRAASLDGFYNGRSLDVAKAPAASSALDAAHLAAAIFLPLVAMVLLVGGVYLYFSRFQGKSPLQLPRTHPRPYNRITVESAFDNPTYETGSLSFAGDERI

Row | Molecule | cross reactivity to murine SEZ6 (mouse SEZ6) | cross reactivity to rat SEZ6 (rat SEZ6) | cross reactivity with SEZ6L2 (SEZ6L2; ELISA, antibody 1 μg/mL) | binds SEZ6 family member SEZ6L2 (dagger) (SEZ6L2; mark in Table 5) | number of tumor cells, LU100 (LU100, a SCLC tumor) | cross reactivity to cynomolgus SEZ6 (cynomolgus SEZ6) | Discontinuous (SEZ6 ECD) | percent viable cells, LU64 (LU64, a SCLC tumor) | percent viable cells, OV26 [1]
1 | SC17.19: murine anti-SEZ6 antibody (antibody, V domains shown, Murine SC17.19 VH; Murine SC17.19 VL, murine anti-SEZ6 antibody) VH: DVQLQESGPGLVKPSQSLSVTCTVTGYSITSSYTWNWIRQFPGNKLEWMGYIHYSGSTNYNPSLRSRISITRDTSKNQFFLQLNSVTTEDTATYYCARSRYYYDAYGFAYWGQGTLVTVSA VL: DIVLTQSPASLAVSLGQRAAISCKPSQSVDYDGDSYMNWYQQKPGQPPKLLIYAASNLESGIPARFSGSGSGTDFTLNIHPVEEEDAATYYCHQINDDPWTFGGGTKLK | cross reactive | cross reactive | cross-reactive | SC17.SC17, SC17.19^†, SC17.93, SC17.102, SC17.121, | reduction of tumor cells |  |  |  | 
2 | SC17.34: murine anti-SEZ6 antibody (antibody, V domains shown, Murine SC17.34 VH; Murine SC17.34 VL, murine anti-SEZ6 antibody) VH: EVQLQQSGPELVKPGSSVKISCKASGYTFTDYNMDWVKQSHGKRLEWIGYIYPDNGGAGYNQKFKGKATLTVDKSSSTAYMELRSLTSEDSAVYYCSRSITTAWFAYWGQGTLVTVSA VL: DIKMTQSPSSMYASLGERVTITCKASQDINSYLSWFQQKPGKSPKTLIYRANRLVDGVPSRFSGSGSGQDYSLTISSLEYEDMGIYYCLQYDEFPPTFGGGTKLEIK |  | cross reactive |  |  | reduction of tumor cells | cross reactive | Yes |  | 
3 | SC17.28-ADC2: SC17.28 antibody conjugated to PBD dimer cytotoxic agent (and linker) ADC2 (conjugate) VL: DILLTQSPAILSVSPGEGVSFSCRASQSIGTSIHWYQQRTNGSPRLLIKYASESISGIPSRFSGSGSGTDFTLRINSLESEDIADYYCQQSNSWPLTFGAGTKLELK VH: QVHLPQSRPELVKPGASVKISCKASGYGFTRSYIHWVKQRPGQGLEWIGYISSGSGGTTYNQKFKGKASLTADNPSSTAYMHLSSLTSEDSAIYFCARGGVRYFDVWGAGTTVTVSS |  |  |  |  |  |  |  | increased reduction in percent viable cells | increased reduction in percent viable cells
4 | SC17.24: murine anti-SEZ6 antibody; duplicate sequence of SC17.2 (antibody, V domains shown, Murine SC17.2 VH; Murine SC17.2 VL) VH: QVQLQQSDAELVKPGASVKISCKVSGYTFTDHTIHWMKQRPEQGLEWIGYIYPRDGSTKYNEEFKGKATLTADKSSSTAYMQLNSLTSEDSAVYFCARSYSNYFDYWGQGTTLTVSS VL: DIVMSQSPSSLAVSVGEKVTMSCKSSQSLLYSSNQKSYLAWYQQKPGQSPKLLIYWASTRESGVPDRFTGSGSGTDFTLTISSVQAEDLAVYYCKQSYNLRTFGGGTKLEIK | cross reactive |  |  |  |  | cross reactive | No |  | 
5 | SC17.24-ADC2: SC17.24 antibody conjugated to PBD dimer cytotoxic agent (and linker) ADC2 (conjugate) VL: DIVMSQSPSSLAVSVGEKVTMSCKSSQSLLYSSNQKSYLAWYQQKPGQSPKLLIYWASTRESGVPDRFTGSGSGTDFTLTISSVQAEDLAVYYCKQSYNLRTFGGGTKLEIK VH: QVQLQQSDAELVKPGASVKISCKVSGYTFTDHTIHWMKQRPEQGLEWIGYIYPRDGSTKYNEEFKGKATLTADKSSSTAYMQLNSLTSEDSAVYFCARSYSNYFDYWGQGTTLTVSS |  |  |  |  |  |  |  | increased reduction in percent viable cells | increased reduction in percent viable cells
